Assay results from PMC3156696 (Developmental cell, 2010).

B1: full-length S. pombe Cls1p (residues 1-1462) (natural protein, UniProt O42874 1-1462, looked up)
chain: MADKDAQDFLKFLKSNASTDEKTRCLDTLRSFFNKNNIPNADLGLFVECFRLALTTVNPLLLRSSVACFETFLRRLRAQYPTWLKFRVPMLKNLVIDHIASRDLQKRVLNILIDLWHFNPSEIEKSLIHLSTTSKSAETRIQCFKWFVLAHNAHLSFDVKSLRPALYINLENANPSVREEAKEVLLLIYKNLSTSAKMQFITDVETTSGLRREILQSLVEELSLISSSSEVIIVQNSASSFQPAPFMTAVATLYPGVELENVKPLLANFSKQLEQDSASMLPAFEGRETEQNWSVRQDSVLRLRQYLRGNACIDYLPELLSVLKTLLPGILLALLSLRTTLSSSAIQLIKEMAIILKSNIDPFLELILPNLLKVCSVTKKLASQAANVTFAAILVNCGVLSRNLSFISLAAHDTNAQLRVFSSNWIFMLISLSPELKNLASLQTNLKAFEKLICRGLADSNSQVREVYRKSFWKLSEYFPSVQEELTNTLEPSVLKQLHLANPNRQAASFNFSGPKRAPIRPLSNLRSFSKSQKEETSSNSSNSSGTRRLGLPQRATPASRERVLPYTRSQAFHSTSLPPSLPSGHSPSIAIPSKRSVSATIKDESKTFELLKNIQRKYELILSGSSVDLPSAEFLSSNLTDALYSGSSICYSLIFSHSLLDLTFQYVDIASLLSQFLLCVYDPSNVGHSFALASFPYVKSHYDAHKYFPIVFDVLMNISNMAPHVKVFPFNTNQKRLIIHGCLLWLKEISDTKLNQLENKPFFVTDKLRYYSSKILAMTAKTKLTSKNWIPLSGLLFSLRAHDTFMFDGLLDRLNEESRTKLVSSWSKQDAFDYSKSSTHQEHLSKNLPTLNTSSSSNSSQTDLLVPHGKGETKETEMQSPIESKEGLLSKDTHIESPQGTSLEKENEEEGKNPVESNCSEESLDDHNIDQTLVNKKETLAQDSESLLQKNNALNEKGFENQFGLSSSAAKVLNKDTLDHVSGPISNSVSSSFKDFTRTPFKEINGERETGFELTSYVNALSKKDDINVQKTENVDESVGLNAMFMDNVNQDSLNSVDQSSGKDKLLLTSSTPNKPTTFFMPANEEILGSPAKDYDIHDQSYSVHELHSENMRENVGQSSLIYNNRDYMNTPMNDFSLSFSEIKGGILESPVESPMTGTISPIDADESVLHDIPAYESLNKSESNKYQEQAYSTPLHHTLNVLPKNKWILSRMHKMENGSPINVDKNLDDAVAALEAAVKELNDGSVNTKTLKFCIKVCKETPSMLYHSHGLLPAILHYIESNNSAMHISDCLILLHEFLVQGYQGVDMHTYHNIICILIEKAEKCKDEPVILAGIEDNITLIAEIADLQGLYEFTQQRLQSLNTETGEKSAPLLLMLLSAILMRLKDLEFLETKDLLRHVVLKYIDHTNPEIRKATFNVCLAVNTIVNNVDETFSILGGLNEGQRLLFMHYLKMKSDEKN
B2: Cls1p-GFP (full-length Cls1p with GFP fused to its C-terminus) (natural protein, S. pombe, UniProt O42874 1-1462, looked up)
chain: B1 chain
B3: Cls1p^604 (residues 1-604) (domain or fragment, S. pombe, UniProt O42874 1-604, looked up)
chain: MADKDAQDFLKFLKSNASTDEKTRCLDTLRSFFNKNNIPNADLGLFVECFRLALTTVNPLLLRSSVACFETFLRRLRAQYPTWLKFRVPMLKNLVIDHIASRDLQKRVLNILIDLWHFNPSEIEKSLIHLSTTSKSAETRIQCFKWFVLAHNAHLSFDVKSLRPALYINLENANPSVREEAKEVLLLIYKNLSTSAKMQFITDVETTSGLRREILQSLVEELSLISSSSEVIIVQNSASSFQPAPFMTAVATLYPGVELENVKPLLANFSKQLEQDSASMLPAFEGRETEQNWSVRQDSVLRLRQYLRGNACIDYLPELLSVLKTLLPGILLALLSLRTTLSSSAIQLIKEMAIILKSNIDPFLELILPNLLKVCSVTKKLASQAANVTFAAILVNCGVLSRNLSFISLAAHDTNAQLRVFSSNWIFMLISLSPELKNLASLQTNLKAFEKLICRGLADSNSQVREVYRKSFWKLSEYFPSVQEELTNTLEPSVLKQLHLANPNRQAASFNFSGPKRAPIRPLSNLRSFSKSQKEETSSNSSNSSGTRRLGLPQRATPASRERVLPYTRSQAFHSTSLPPSLPSGHSPSIAIPSKRSVSATIKD

What was measured:
[1] = molecular target: soluble αβ-tubulin heterodimer purified from bovine brain (bovine) (UniProt Q6B856)
[2] = molecular target: soluble αβ-tubulin heterodimer purified from bovine brain (bovine) (UniProt Q6B856); assay: SEC
[3] = molecular target: GMPCPP-stabilized microtubules (unlabelled, polymerized bovine brain tubulin) (bovine, UniProt Q6B856 1-445); assay: co-sedimentation
[4] = molecular target: soluble αβ-tubulin heterodimer purified from bovine brain (bovine) (UniProt Q6B856); assay: AUC
AUC = molecular target: the molecule itself; assay: AUC

Binder | MT rescue frequency in TIRF dynamics assay, 6 μM tubulin, Cls1p 20 nM to 140 nM [1] [rescues/min] | stoichiometry N (Cls1p molecules per αβ-tubulin dimer) [2] | stoichiometry N [3] | stoichiometry N (tubulin dimer per complex) [4] | stoichiometry N (AUC)
B1 | 2.15 | 2 | ~6 polymerized tubulin dimers per Cls1p monomer |  | 
B2 |  |  |  | 1 | 2
B3 |  |  | ~3 polymerized tubulin dimers per Cls1 molecule |  | 
